Laboratory results published in paper PMC5380708, “Optimized synthesis of novel prenyl ferulate performed by feruloyl esterases from Myceliophthora thermophila in microemulsions” (Applied Microbiology and Biotechnology, 2017).

B1: MtFae1a (Thermothelomyces thermophilus ATCC 42464) (protein)
chain: ASLQEVTEFGDNPTNIQMYIYVPDQLDTNPPVIVALHPCGGSAQQWFSGTQLPSYADDNGFILIYPSTPHMSNCWDIQNPDTLTHGQGGDALGIVSMVNYTLDKHSGDSSRVYAMGFSSGGMMTNQLAGSYPDVFEAGAVYSGVAFGCAAGAESATPFSPNQTCAQGLQKTAQEWGDFVRNAYAGYTGRRPRMQIFHGLEDTLVRPQCAEEALKQWSNVLGVELTQEVSGVPSPGWTQKIYGDGTQLQGFFGQGIGHQSTVNEQQLLQWFGLI
notes: secreted from Pichia pastoris X33, glycosylated

Experiments:
[1] = system: T1, C=COC(=O)/C=C/c1ccc(O)c(OC)c1; assay: transesterification rate by HPLC, nonlinear Michaelis-Menten fit; format: biochemical, Thermothelomyces thermophilus; settings: acyl donor, 200 mM prenol, n-hexane:t-butanol:100 mM MOPS-NaOH pH 6.0 19.8:74.7:5.5 v/v/v microemulsion, 40 °C, 8 h, error = SE
T1 construct: secreted, over-expressed in low-background M. thermophila C1 host
Description: transesterification rate by HPLC, nonlinear Michaelis-Menten fit on FaeA2

[2] = substrate: C=COC(=O)/C=C/c1ccc(O)c(OC)c1; assay: as above; format: biochemical, Thermothelomyces thermophilus; settings: acyl donor, 200 mM prenol, n-hexane:t-butanol:100 mM MOPS-NaOH pH 6.0 53.4:43.4:3.2 v/v/v microemulsion, 40 °C, 8 h, error = SE
Description: transesterification rate by HPLC, nonlinear Michaelis-Menten fit on MtFae1a

| Molecule | Km [1] | Km [2] |
| --- | --- | --- |
| FaeA2 (Thermothelomyces thermophilus) | 46.5 (18.1) mM | – |
| B1 | – | 81.2 (22.3) mM |
